Substrate: c1ccc2c3c([nH]c2c1)CNCC3
Test: steady-state kinetics of chlorination
Assay type: biochemical, Lentzea aerocolonigenes
Conditions: cofactor regeneration as in Scheme 2

Row | Protein | Km (variant 1-PVM, 5 mol% enzyme) | kcat (variant 1-PVM, 5 mol% enzyme) | kcat/Km (variant 1-PVM, 5 mol% enzyme) | Km (variant 2-T, 3 mol% enzyme) | kcat (variant 2-T, 3 mol% enzyme) | kcat/Km (variant 2-T, 3 mol% enzyme)
1 | RebH (Lentzea aerocolonigenes; K145M/M71V/S2P) (protein) MPGKIDKILIVGGGTAGWMAASYLGKALQGTADITLLQAPDIPTLGVGEATIPNLQTAFFDFLGIPEDEWVRECNASYKVAIKFINWRTAGEGTSEARELDGGPDHFYHSFGLLKYHEQIPLSHYWFDRSYRGKTVEPFDYACYMEPVILDANRSPRRLDGSKVTNYAWHFDAHLVADFLRRFATEKLGVRHVEDRVEHVQRDANGNIESVRTATGRVFDADLFVDCSGFRGLLINKAMEEPFLDMSDHLLNDSAVATQVPHDDDANGVEPFTSAIAMKSGWTWKIPMLGRFGTGYVYSSRFATEDEAVREFCEMWHLDPETQPLNRIRFRVGRNRRAWVGNCVSIGTSSCFVEPLESTGIYFVYAALYQLVKHFPDKSLNPVLTARFNREIETMFDDTRDFIQAHFYFSPRTDTPFWRANKELRLADGMQEKIDMYRAGMAINAPASDDAQLYYGNFEEEFRNFWNNSNYYCVLAGLGLVPDAPSPRLAHMPQATESVDEVFGAVKDRQRNLLETLPSLHEFLRQQHGR | 215 µM | 0.000667 s⁻¹ | 3.1 M⁻¹ s⁻¹ |  |  | 
2 | RebH (Lentzea aerocolonigenes; K145M/M71V/N467T/S2P) (protein) MPGKIDKILIVGGGTAGWMAASYLGKALQGTADITLLQAPDIPTLGVGEATIPNLQTAFFDFLGIPEDEWVRECNASYKVAIKFINWRTAGEGTSEARELDGGPDHFYHSFGLLKYHEQIPLSHYWFDRSYRGKTVEPFDYACYMEPVILDANRSPRRLDGSKVTNYAWHFDAHLVADFLRRFATEKLGVRHVEDRVEHVQRDANGNIESVRTATGRVFDADLFVDCSGFRGLLINKAMEEPFLDMSDHLLNDSAVATQVPHDDDANGVEPFTSAIAMKSGWTWKIPMLGRFGTGYVYSSRFATEDEAVREFCEMWHLDPETQPLNRIRFRVGRNRRAWVGNCVSIGTSSCFVEPLESTGIYFVYAALYQLVKHFPDKSLNPVLTARFNREIETMFDDTRDFIQAHFYFSPRTDTPFWRANKELRLADGMQEKIDMYRAGMAINAPASDDAQLYYGNFEEEFRNFWTNSNYYCVLAGLGLVPDAPSPRLAHMPQATESVDEVFGAVKDRQRNLLETLPSLHEFLRQQHGR |  |  |  | 236 µM | 0.000933 s⁻¹ | 3.95 M⁻¹ s⁻¹

Reference: PMC4506780
